Residue numbers refer to the chain shown, from its start.
B1: 5E11-TCB (bispecific antibody, human IgG1, kappa, L234A L235A)
light 1: DIVLTQSPALAVSPGQRATISCRASQSVSISGINLMNWYQQKPGQQPKLLIYHASILASGIPTRFSGSGSGTDFTLTIDPVQADDIATYYCQQTRESPLTFGSGTNLEIKRTVAAPSVFIFPPSDRKLKSGTASVVCLLNNFYPREAKVQWKVDNALQSGNSQESVTEQDSKDSTYSLSSTLTLSKADYEKHKVYACEVTHQGLSSPVTKSFNRGEC
light 2: EVQLLESGGGLVQPGGSLRLSCAASGFTFSTYAMNWVRQAPGKGLEWVSRIRSKYNNYATYYADSVKGRFTISRDDSKNTLYLQMNSLRAEDTAVYYCVRHGNFGNSYVSWFAYWGQGTLVTVSSASVAAPSVFIFPPSDEQLKSGTASVVCLLNNFYPREAKVQWKVDNALQSGNSQESVTEQDSKDSTYSLSSTLTLSKADYEKHKVYACEVTHQGLSSPVTKSFNRGEC
heavy 1: ELQLEQSGGGLVQPGGSLTLSCAASGFTFSKYAMAWVRQAPTKGLEWVASISTGGVNTYYRDSVKARFTISRDNAKNTQYLQMDSLRSEDTATYYCATHTGDYFDYWGQGVMVTVSSASTKGPSVFPLAPSSKSTSGGTAALGCLVEDYFPEPVTVSWNSGALTSGVHTFPAVLQSSGLYSLSSVVTVPSSSLGTQTYICNVNHKPSNTKVDEKVEPKSCDKTHTCPPCPAPEAAGGPSVFLFPPKPKDTLMISRTPEVTCVVVDVSHEDPEVKFNWYVDGVEVHNAKTKPREEQYNSTYRVVSVLTVLHQDWLNGKEYKCKVSNKALGAPIEKTISKAKGQPREPQVCTLPPSRDELTKNQVSLSCAVKGFYPSDIAVEWESNGQPENNYKTTPPVLDSDGSFFLVSKLTVDKSRWQQGNVFSCSVMHEALHNHYTQKSLSLSPGK
heavy 2: not shown
notes: 2+1 anti-GPRC5D/anti-CD3 T cell bispecific: LC1 (GPRC5D), LC2 (CD3 crossed VH-CL), HC hole, HC knob; also called 5E11p-CH2527
B2: 5F11-TCB (bispecific antibody, human IgG1, kappa, L234A L235A)
light 1: DIVMTQAPLSVSVTPGESASISCRSSKSLLHSNGITYVYWYFQKPGKSPQVLIYRMSNLASGVPDRFSGSGSETDFTLKISRVEAEDVGIYHCGQLLENPYTFGAGTELELKRTVAAPSVFIFPPSDRKLKSGTASVVCLLNNFYPREAKVQWKVDNALQSGNSQESVTEQDSKDSTYSLSSTLTLSKADYEKHKVYACEVTHQGLSSPVTKSFNRGEC
light 2: B1 light 2
heavy 1: EVQLVESGGGLVQPGRSLKLSCAASGFSFSNYGMAWVRQAATKGLEWVASISTGGGNTYYRDSVKGRFIVSRDNAKNTQYLQMDSLRSEDTATYYCTRHDRGGLYWGQGVMVTVSSASTKGPSVFPLAPSSKSTSGGTAALGCLVEDYFPEPVTVSWNSGALTSGVHTFPAVLQSSGLYSLSSVVTVPSSSLGTQTYICNVNHKPSNTKVDEKVEPKSCDKTHTCPPCPAPEAAGGPSVFLFPPKPKDTLMISRTPEVTCVVVDVSHEDPEVKFNWYVDGVEVHNAKTKPREEQYNSTYRVVSVLTVLHQDWLNGKEYKCKVSNKALGAPIEKTISKAKGQPREPQVCTLPPSRDELTKNQVSLSCAVKGFYPSDIAVEWESNGQPENNYKTTPPVLDSDGSFFLVSKLTVDKSRWQQGNVFSCSVMHEALHNHYTQKSLSLSPGK
heavy 2: not shown
notes: 2+1 anti-GPRC5D/anti-CD3 T cell bispecific: LC1 (GPRC5D), LC2 (CD3 crossed VH-CL), HC hole, HC knob; also called 5F11p-CH2527
B3: 5E11(VH1d + VL2a)-C122-TCB (P1AE6626) (bispecific antibody, human IgG1, kappa, L234A L235A)
light 1: EIVLTQSPGTLSLSPGERATLSCRASQSVSISGINLMNWYQQKPGQQPRLLIYHASILASGIPDRFSGSGSGTDFTLTISRLEPEDFAVYYCQQTRESPLTFGQGTRLEIKRTVAAPSVFIFPPSDRKLKSGTASVVCLLNNFYPREAKVQWKVDNALQSGNSQESVTEQDSKDSTYSLSSTLTLSKADYEKHKVYACEVTHQGLSSPVTKSFNRGEC
light 2: B1 light 2 with T28Q, T31S, G102T, N103T, G105P, N106S, W111Y, F112Y, A113G
heavy 1: ELQLLESGGGLVQPGGSLRLSCAASGFTFSKYAMAWVRQAPGKGLEWVASISTGGVNTYYADSVKGRFTISRDNAKNTLYLQMNSLRAEDTAVYYCATHTGDYFDYWGQGTMVTVSSASTKGPSVFPLAPSSKSTSGGTAALGCLVEDYFPEPVTVSWNSGALTSGVHTFPAVLQSSGLYSLSSVVTVPSSSLGTQTYICNVNHKPSNTKVDEKVEPKSCDKTHTCPPCPAPEAAGGPSVFLFPPKPKDTLMISRTPEVTCVVVDVSHEDPEVKFNWYVDGVEVHNAKTKPREEQYNSTYRVVSVLTVLHQDWLNGKEYKCKVSNKALGAPIEKTISKAKGQPREPQVCTLPPSRDELTKNQVSLSCAVKGFYPSDIAVEWESNGQPENNYKTTPPVLDSDGSFFLVSKLTVDKSRWQQGNVFSCSVMHEALHNHYTQKSLSLSPGK
heavy 2: not shown
notes: 2+1 TCB: LC1 (anti-GPRC5D), LC2 (anti-CD3 crossed), HC1 Fc hole, HC2 Fc knob

Experiments:
human GPRC5D [1] = biological target: T1, human GPRC5D (human, UniProt Q9NZD1 1-345); assay: cell-based or functional assay
human GPRC5D [2] = biological target: T1, human GPRC5D; assay: flow cytometry on NCI-H929 cells; paragraph 550 says these values were falsely calculated by a factor of 10 (too low)
Method: (§1) To measure the binding to GPRC5D, we performed a flow cytometry-based binding assay on reported multiple myeloma cell lines (Lombardi et al., Molecular characterization of human multiple myeloma cell lines by integrative genomics: insights into the biology of the disease; Genes Chromosomes Cancer. 2007 March; 46(3):226-38). The cell line NCI-H929 (ATCC® CRL-9068) was cultured in RPMI 1640 with Glutamax medium (Gibco) supplemented with 10% FBS, 1× Penicillin/Streptomycin (Gibco), 1× Sodium Pyruvate (Gibco) and 50 μM beta-Mercaptoethanol (Gibco). Jurkat-NFAT reporter cells (a CD3-expressing human acute lymphatic leukemia reporter cell line with a NFAT promoter, GloResponse Jurkat NFAT-RE-luc2P, Promega #CS176501) were cultured in RPMI 1640, containing 2 g/l Glucose, 2 g/l NaHCO₃, 10% FCS, 25 mM HEPES, 2 mM L-Glutamine, 1×NEAA, 1× Sodium-pyruvate and 200 μg/ml Hygromycin B.
(§2) Flow cytometry acquisition was performed on a custom-designed BD Biosciences Fortessa and analyzed using BD Diva. EC50 values were calculated, using GraphPad Prism software.

human CD3 = biological target: T2, human CD3 (human, UniProt P07766 23-207); assay: flow cytometry on Jurkat-NFAT cells; paragraph 550 says these values were falsely calculated by a factor of 10 (too low)
T2 construct: Expressed on Jurkat-NFAT reporter cells as part of the TCR/CD3 complex; also called hCD3; CD3 epsilon
Method: as §1, §2

human GPRC5D [3] = biological target: T1, human GPRC5D; assay: cell-based or functional assay; remark: listed apart in the source
human GPRC5D [4] = biological target: T1, human GPRC5D; assay: cell-based or functional assay; remark: listed apart in the source

T1 sequence (Q9NZD1 whole entry): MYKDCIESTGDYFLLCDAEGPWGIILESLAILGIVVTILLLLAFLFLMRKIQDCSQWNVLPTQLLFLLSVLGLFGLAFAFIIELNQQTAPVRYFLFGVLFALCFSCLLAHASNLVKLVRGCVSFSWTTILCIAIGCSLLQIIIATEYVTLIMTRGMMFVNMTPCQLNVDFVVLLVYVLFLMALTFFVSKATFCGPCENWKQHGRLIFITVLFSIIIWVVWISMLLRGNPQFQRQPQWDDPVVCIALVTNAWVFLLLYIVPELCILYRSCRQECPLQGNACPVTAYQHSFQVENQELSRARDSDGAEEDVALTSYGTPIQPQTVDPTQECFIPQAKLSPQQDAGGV
T2 sequence (P07766 23-207 limits assumed): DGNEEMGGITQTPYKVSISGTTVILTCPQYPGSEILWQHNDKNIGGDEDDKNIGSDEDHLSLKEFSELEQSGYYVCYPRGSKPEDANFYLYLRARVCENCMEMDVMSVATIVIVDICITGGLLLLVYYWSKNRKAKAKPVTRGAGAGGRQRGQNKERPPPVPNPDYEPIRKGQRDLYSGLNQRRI

Binder	EC50 in vitro killing assay, AMO-1 (human GPRC5D [1])	EC50 in vitro killing assay, EJM (human GPRC5D [1])	EC50 in vitro killing assay, L363 (human GPRC5D [1])	EC50 in vitro killing assay, MOLP-2 (human GPRC5D [1])	EC50 in vitro killing assay, NCI-H929 (human GPRC5D [1])	EC50 in vitro killing assay, OPM-2 (human GPRC5D [1])	EC50 in vitro killing assay, RPMI (human GPRC5D [1])	EC50 (human GPRC5D [2])	EC50 (human CD3)	EC50 of anti-GPRC5D-TCB mediated killing, AMO-1 (human GPRC5D [3])	EC50 of anti-GPRC5D-TCB mediated killing, L363 (human GPRC5D [3])	EC50 of anti-GPRC5D-TCB mediated killing, NCI-H929 (human GPRC5D [3])	EC50 of anti-GPRC5D-TCB mediated killing, RPMI-8226 (human GPRC5D [3])	AUC, activation of Jurkat-NFAT reporter cells in presence of RPMI-8226 cells (human GPRC5D [4])	EC50 (pM), activation of Jurkat-NFAT reporter cells in presence of RPMI-8226 cells (human GPRC5D [4])
B1	8 pM	11 pM	17 pM	18 pM	7 pM	2 pM	64 pM	3360 pM	3670 pM	14 pM	12 pM	7 pM	24 pM	265000	157 pM
B2	6 pM	3 pM	3 pM	1 pM	4 pM	1 pM	6 pM	180 pM	2310 pM	3 pM	1 pM	1 pM	2 pM	393000	14 pM
B3								850 pM	7800 pM					582000	49.7 pM
